The target of this experiment is T1, folding reporter GFP 1-10 (Aequorea victoria, UniProt P42212 1-214 = GFP).
T1 construct: range 1-214; also called folding reporter GFP fragment 1-214; FR
Briefly: co-expression from compatible pET vectors in E. coli, colony fluorescence (split GFP complementation).

No end group written: not given here.

T1 sequence (P42212 other isoform, or with tags, fused parts or gaps limits assumed): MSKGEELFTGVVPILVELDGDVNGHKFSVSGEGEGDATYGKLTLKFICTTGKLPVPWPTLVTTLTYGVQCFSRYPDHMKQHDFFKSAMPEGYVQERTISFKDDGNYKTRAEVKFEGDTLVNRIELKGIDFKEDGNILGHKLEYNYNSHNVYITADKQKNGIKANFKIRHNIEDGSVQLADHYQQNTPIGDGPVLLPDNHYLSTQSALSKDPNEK

B1: GFP S11 wild type (peptide)
peptide: KRDHMVLLEFVTAAGITGT
modifications: also: fused to sulfite reductase
notes: also called GFP S11 214-230; wild type GFP S11
B1: the binding result is “no binding”.

Values taken from US20050221343A1 (LOS ALAMOS NATIONAL SECURITY, published 2005).
